Measured values as given in the supplement of paper PMC10724198.
± gives the standard deviation of the averaged measurements.
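Further: PSI is a weighted mean of sequencing reads over stability bins, variants kept only with over 10 reads, mCherry proximal and sfGFP distal, peptide attached via GGGS linker.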

Each sequence was assayed on Saccharomyces cerevisiae (assay: protein stability index of tFT-peptide fusion (C-terminal peptide) (PSI (0-1 scale)); higher = more stable (slower turnover)). Details: genetic background: wild type; temperature: 30 C.
PPSRFPAPPSCA gave a protein stability index of 0.705 ± 0.059. PPSSPLRRRTTS was tested, and the protein stability index was 0.725 ± 0.078. For PPSSPPPASHRP, the protein stability index was 0.691 ± 0.046. PPSTPPRPDSPP was tested, and the protein stability index was 0.578 ± 0.084. With PPTANLAHSSHP the protein stability index was 0.693 ± 0.014. With PPTHHRALRPSA the protein stability index was 0.687 ± 0.026. Sequence PPTLPPPSPLIL has a protein stability index of 0.775 ± 0.11. In the case of PPTPMRAQRHPR, the protein stability index is reported as 0.579 ± 0.01. For PPTPPLVPPTRH, the protein stability index was 0.739 ± 0.016. PPTPPPLRPSFS was tested, and the protein stability index was 0.704 ± 0.023. PPTPPPPSGLPP gave a protein stability index of 0.678 ± 0.05. Work on PPTPPPRPLQLP yielded a protein stability index of 0.652 ± 0.0076. With PPTRPFHLFDHL the protein stability index was 0.716 ± 0.029. Sequence PPVLAVRTSLDA has a protein stability index of 0.636 ± 0.021. With PPVSPPPSRHPL the protein stability index was 0.719 ± 0.04. PPYPCRRPPPPP gave a protein stability index of 0.647 ± 0.033. Work on PPYPRRWAPLGP yielded a protein stability index of 0.6872 ± 0.0051. PPYSLLFHPFPF gave a protein stability index of 0.699 ± 0.018. In the case of PQPHLLRPPPHS, the protein stability index is reported as 0.674 ± 0.018. In the case of PQVSYYLLPPSS, the protein stability index is reported as 0.711 ± 0.11. PQWVSIGSACCQ was tested, and the protein stability index was 0.754 ± 0.076. With PQYGTNQGRWTG the protein stability index was 0.705 ± 0.055. In the case of PRALCPSSPPSR, the protein stability index is reported as 0.764 ± 0.12. Work on PRAPRLQAPGPG yielded a protein stability index of 0.75233 ± 0.00055. PRCPVNTHPLAR was tested, and the protein stability index was 0.702 ± 0.013. In the case of PRGVLSCPVFAP, the protein stability index is reported as 0.776 ± 0.029. PRGYCGLGRPAR showed a protein stability index of 0.6305 ± 0.0013. Sequence PRIFPDPVFPSL has a protein stability index of 0.688 ± 0.046. PRKISSFESSLT gave a protein stability index of 0.629 ± 0.086. PRLFPSSPLPFN was tested, and the protein stability index was 0.822 ± 0.018. PRLLSLKLSALS was tested, and the protein stability index was 0.629 ± 0.063. With PRLPPLRPPPSP the protein stability index was 0.7079 ± 0.0064. In the case of PRLPPPSPPPLP, the protein stability index is reported as 0.735 ± 0.01. For PRLPTSPVPHPP, the protein stability index was 0.6473 ± 0.0033. Sequence PRLSGLFLAPPS has a protein stability index of 0.707 ± 0.037. In the case of PRLSTYPDSPGS, the protein stability index is reported as 0.71038 ± 0.00066. Work on PRLVALFEKNPD yielded a protein stability index of 0.6615 ± 0.0012. In the case of PRPCPASSPRPP, the protein stability index is reported as 0.627 ± 0.083. Sequence PRPLLFPLIFTP has a protein stability index of 0.627 ± 0.026. PRPLTPDPPRPL showed a protein stability index of 0.693 ± 0.062. PRPPARPPLRLL gave a protein stability index of 0.719 ± 0.017. For PRPPPPARSPPS, the protein stability index was 0.66 ± 0.06. Work on PRPPPPCPPPSL yielded a protein stability index of 0.71 ± 0.083. For PRPPPSQATLSP, the protein stability index was 0.637 ± 0.052. PRPPRAPPPLPS showed a protein stability index of 0.643 ± 0.1. For PRPPSPAPPPHP, the protein stability index was 0.69904 ± 0.00044. In the case of PRPPSPRAPPPH, the protein stability index is reported as 0.631 ± 0.067. For PRPRRFPPPLLA, the protein stability index was 0.5103 ± 0.0049. Sequence PRPVRPSPHPPP has a protein stability index of 0.689 ± 0.1. PRRPPPSPPVPP gave a protein stability index of 0.532 ± 0.03. Work on PRRQCIRAPCAR yielded a protein stability index of 0.641 ± 0.018. In the case of PRSLPSFHPPFH, the protein stability index is reported as 0.658 ± 0.074. In the case of PRSPHPLPPTPP, the protein stability index is reported as 0.666 ± 0.0084. Work on PRSPPPPPSYSP yielded a protein stability index of 0.703 ± 0.13. PRSSLPPPPSLP was tested, and the protein stability index was 0.686 ± 0.038. For PRTLTPVCPAPH, the protein stability index was 0.702 ± 0.015. PSALSEQQANGF gave a protein stability index of 0.6838 ± 0.0022. PSAPPTPLAPSH was tested, and the protein stability index was 0.678 ± 0.028. PSASPPPPARQP showed a protein stability index of 0.672 ± 0.057. For PSASRILSPPLP, the protein stability index was 0.649 ± 0.016. Work on PSCCPPATLPPP yielded a protein stability index of 0.687 ± 0.056. With PSCFFPFPPRPL the protein stability index was 0.727 ± 0.04. Work on PSDTSHPAWRAN yielded a protein stability index of 0.708 ± 0.025. With PSFPLLPPPSLS the protein stability index was 0.6913 ± 0.0051. For PSFPPLPLSTPP, the protein stability index was 0.762 ± 0.063. PSFPRSPHTAPH gave a protein stability index of 0.746 ± 0.022. For PSFPSLLPPPPT, the protein stability index was 0.703 ± 0.025. Sequence PSGGRGSRWWGV has a protein stability index of 0.7348 ± 0.006. PSGGSQSLGRLG was tested, and the protein stability index was 0.634 ± 0.034. PSGPSTVLPSPL was tested, and the protein stability index was 0.6866 ± 0.0065. With PSGSVLAEGRGP the protein stability index was 0.678 ± 0.077. Work on PSHPPPPSPTPP yielded a protein stability index of 0.754 ± 0.024. Work on PSHTPLPPSSLS yielded a protein stability index of 0.763 ± 0.089. Sequence PSISSTSPLPRP has a protein stability index of 0.633 ± 0.039. Work on PSLLPPRVCRPS yielded a protein stability index of 0.68 ± 0.089. For PSLPHLPSTSSC, the protein stability index was 0.681 ± 0.023. PSLPLPPPPAHP gave a protein stability index of 0.65 ± 0.02. For PSLPPRPQLVHS, the protein stability index was 0.596 ± 0.017. Sequence PSLRLPVSVPTL has a protein stability index of 0.717 ± 0.018. For PSNNHRPPGCAD, the protein stability index was 0.685 ± 0.023. With PSPAAPSPPCLP the protein stability index was 0.64 ± 0.045.
